Reference: the Immune Epitope Database (IEDB)

Legend:
HLA-B*15:01 [1] = experiment: IEDB peptide-MHC binding, purified MHC/direct/fluorescence; filed as Kd, often an IC50 or EC50 that approximates it; ≥ and ≤ were set here for values at or beyond the usual limits of such assays; conditions: source organism: Zaire ebolavirus
HLA-B*58:01 = experiment: as above
HLA-B*57:01 [2] = experiment: as above
HLA-B*08:01 = experiment: as above
HLA-A*24:03 = experiment: as above; conditions: source organism: Zaire ebolavirus
HLA-A*31:01 = experiment: as above; conditions: source organism: Zaire ebolavirus
HLA-B*48:01 = experiment: as above; conditions: source organism: Zaire ebolavirus
HLA-A*03:01 [3] = experiment: as above
HLA-A*01:01 = experiment: as above
HLA-A*29:02 = experiment: as above
HLA-B*46:01 [4] = experiment: as above
HLA-A*02:12 = experiment: as above; conditions: source organism: Zaire ebolavirus
HLA-A*11:01 [5] = experiment: as above
HLA-B*27:05 = experiment: as above; conditions: source organism: Zaire ebolavirus
HLA-A*69:01 [6] = experiment: as above
HLA-B*07:02 = experiment: as above
HLA-A*68:02 = experiment: as above; conditions: source organism: Zaire ebolavirus
HLA-A*02:11 = experiment: as above; conditions: source organism: Zaire ebolavirus
HLA-A*24:02 = experiment: IEDB peptide-MHC binding, purified MHC/competitive/fluorescence; ≥ and ≤ were set here for values at or beyond the usual limits of such assays
HLA-A*26:01 = experiment: IEDB peptide-MHC binding, purified MHC/competitive/fluorescence; filed as Kd, often an IC50 or EC50 that approximates it; ≥ and ≤ were set here for values at or beyond the usual limits of such assays
HLA-B*18:01 [7] = experiment: as above
HLA-A*02:01 [8] = experiment: as above; conditions: source organism: Zaire ebolavirus
HLA-B*27:03 = experiment: as above
HLA-B*39:01 = experiment: as above
HLA-B*15:01 [9] = experiment: IEDB peptide-MHC binding, purified MHC/competitive/fluorescence; ≥ and ≤ were set here for values at or beyond the usual limits of such assays
HLA-C*05:01 = experiment: IEDB peptide-MHC binding, purified MHC/direct/fluorescence; filed as Kd, often an IC50 or EC50 that approximates it; ≥ and ≤ were set here for values at or beyond the usual limits of such assays; conditions: source organism: Mycobacterium tuberculosis variant bovis BCG str. Pasteur 1173P2
HLA-A*02:01 [10] = experiment: as above
HLA-B*08:02 = experiment: as above
HLA-A*03:01 [11] = experiment: IEDB peptide-MHC binding, purified MHC/competitive/fluorescence; ≥ and ≤ were set here for values at or beyond the usual limits of such assays
HLA-A*02:01 [12] = experiment: as above
HLA-A*11:01 [13] = experiment: as above
HLA-B*51:01 [14] = experiment: IEDB peptide-MHC binding, purified MHC/direct/fluorescence; filed as Kd, often an IC50 or EC50 that approximates it; ≥ and ≤ were set here for values at or beyond the usual limits of such assays
HLA-B*15:01 [15] = experiment: IEDB peptide-MHC binding, purified MHC/competitive/fluorescence; filed as Kd, often an IC50 or EC50 that approximates it; ≥ and ≤ were set here for values at or beyond the usual limits of such assays
HLA-B*18:01 [16] = experiment: IEDB peptide-MHC binding, purified MHC/direct/fluorescence; filed as Kd, often an IC50 or EC50 that approximates it; ≥ and ≤ were set here for values at or beyond the usual limits of such assays; conditions: source organism: Brucella suis
HLA-B*40:01 = experiment: as above; conditions: source organism: Brucella suis
HLA-B*44:02 = experiment: as above; conditions: source organism: Brucella suis
HLA-B*15:42 = experiment: IEDB peptide-MHC binding, purified MHC/competitive/fluorescence; filed as Kd, often an IC50 or EC50 that approximates it; ≥ and ≤ were set here for values at or beyond the usual limits of such assays
HLA-B*83:01 = experiment: as above
HLA-B*45:06 = experiment: as above
HLA-B*15:17 = experiment: as above; conditions: source organism: Homo sapiens
HLA-B*57:01 [17] = experiment: as above; conditions: source organism: Homo sapiens
HLA-B*46:01 [18] = experiment: as above; conditions: source organism: Homo sapiens
HLA-B*51:01 [19] = experiment: as above; conditions: source organism: Homo sapiens
HLA-A*69:01 [20] = experiment: as above; conditions: source organism: Homo sapiens
[21] = source organism: Zaire ebolavirus
[22] = source organism: Sudan ebolavirus
[23] = source organism: Treponema denticola
[24] = source organism: Vibrio vulnificus CMCP6
[25] = source organism: Brucella abortus
[26] = source organism: Vaccinia virus
[27] = source organism: Mycobacterium tuberculosis variant bovis BCG str. Pasteur 1173P2
[28] = source organism: Camelpox virus CMS
[29] = source organism: Vaccinia virus WR
[30] = source organism: Vibrio vulnificus

YDRLASTVI
Kd (HLA-B*15:01 [1]): ≥ 20 µM
Kd (HLA-B*58:01; [21]): ≥ 20 µM
Kd (HLA-B*57:01 [2]; [21]): ≥ 20 µM
Kd (HLA-B*08:01; [21]): ≥ 20 µM
Kd (HLA-A*24:03): ≥ 20 µM
Kd (HLA-A*31:01): ≥ 20 µM
Kd (HLA-B*48:01): ≥ 20 µM
Kd (HLA-A*03:01 [3]; [21]): ≥ 20 µM
Kd (HLA-A*01:01; [21]): ≥ 20 µM
Kd (HLA-A*29:02; [21]): ≥ 20 µM
Kd (HLA-B*46:01 [4]; [21]): ≥ 20 µM
Kd (HLA-A*02:12): ≥ 20 µM
Kd (HLA-A*11:01 [5]; [21]): ≥ 20 µM
Kd (HLA-B*27:05): ≥ 20 µM
Kd (HLA-A*69:01 [6]; [21]): ≥ 20 µM
Kd (HLA-B*07:02; [21]): ≥ 20 µM
Kd (HLA-A*68:02): ≥ 20 µM
Kd (HLA-A*02:11): ≥ 20 µM
IC50 (HLA-A*24:02; [22]): 2.49 µM
Kd (HLA-A*26:01; [21]): ≥ 20 µM
Kd (HLA-B*18:01 [7]; [21]): ≥ 20 µM
Kd (HLA-A*02:01 [8]): ≥ 20 µM
Kd (HLA-B*27:03; [21]): ≥ 20 µM
Kd (HLA-B*39:01; [21]): ≥ 20 µM

SQVPKLLLW
IC50 (HLA-B*15:01 [9]; source organism: Variola virus): ≥ 121 µM

RQDEVGTPF
Kd (HLA-C*05:01): ≤ 0.001 µM
Kd (HLA-A*02:01 [10]; [23]): 2.01 µM
Kd (HLA-A*69:01 [6]; [23]): ≥ 20 µM

RGRKRFHTL
Kd (HLA-B*08:01; [24]): 0.009 µM
Kd (HLA-B*08:02; [24]): 6.76 µM

ILFQKAFSM
IC50 (HLA-B*15:01 [9]; [22]): 4.24 µM
IC50 (HLA-A*03:01 [11]; [22]): 15.7 µM
IC50 (HLA-A*02:01 [12]; [22]): 0.626 µM
IC50 (HLA-A*24:02; [22]): 0.336 µM
IC50 (HLA-A*11:01 [13]; [22]): 54.8 µM

RPNPDFNTF
Kd (HLA-B*51:01 [14]; [25]): ≥ 20 µM
Kd (HLA-B*07:02; [25]): 0.0126 µM
Kd (HLA-B*15:01 [15]; source organism: Brucella melitensis bv. 1 str. 16M): 3 µM

KLFSYGTLI
IC50 (HLA-B*15:01 [9]; source organism: Variola virus): 26.2 µM
IC50 (HLA-A*03:01 [11]; source organism: Variola virus): 5.5 µM
IC50 (HLA-A*02:01 [12]; source organism: Variola virus): 0.61 µM

IIIAVARKH
IC50 (HLA-B*15:01 [9]; source organism: Variola virus): 36.4 µM
IC50 (HLA-A*03:01 [11]; source organism: Variola virus): 35.5 µM
IC50 (HLA-A*02:01 [12]; source organism: Variola virus): 50.9 µM
IC50 (HLA-A*24:02; source organism: Variola virus): 2.98 µM
IC50 (HLA-A*11:01 [13]; source organism: Variola virus): 14.5 µM

RAFRNLNVT
IC50 (HLA-B*15:01 [9]; [26]): ≥ 77.9 µM
IC50 (HLA-A*02:01 [12]; [26]): 48.3 µM

YQRRRRFAI
Kd (HLA-B*58:01; source organism: Brucella suis): ≥ 20 µM
Kd (HLA-B*57:01 [2]; source organism: Brucella suis): ≥ 20 µM
Kd (HLA-B*18:01 [16]): ≥ 20 µM
Kd (HLA-A*03:01 [3]; source organism: Brucella suis): ≥ 20 µM
Kd (HLA-A*01:01; source organism: Brucella suis): ≥ 20 µM
Kd (HLA-B*40:01): ≥ 20 µM
Kd (HLA-A*02:01 [10]; source organism: Brucella suis): ≥ 20 µM
Kd (HLA-B*44:02): ≥ 20 µM
Kd (HLA-A*29:02; source organism: Brucella suis): ≥ 20 µM
Kd (HLA-B*46:01 [4]; source organism: Brucella suis): ≥ 20 µM
Kd (HLA-B*08:02; source organism: Brucella suis 1330): 0.367 µM
Kd (HLA-A*69:01 [6]; source organism: Brucella suis): ≥ 20 µM
Kd (HLA-B*07:02; source organism: Brucella suis): ≥ 20 µM

YFNVLDEKY
IC50 (HLA-B*15:01 [9]; [26]): ≥ 283 µM
IC50 (HLA-A*24:02; [26]): 33 µM

AVSHLTTLA
IC50 (HLA-B*15:01 [9]; [21]): ≥ 135 µM
IC50 (HLA-A*02:01 [12]; [21]): 3.08 µM

HPVTATISF
Kd (HLA-B*15:42; [27]): ≥ 5 µM
Kd (HLA-B*83:01; [27]): 0.616 µM
Kd (HLA-B*45:06; [27]): ≥ 5 µM

LMYPTTLLK
Kd (HLA-A*03:01 [3]; [28]): 0.0045 µM
Kd (HLA-A*11:01 [5]; [28]): 0.0022 µM
Kd (HLA-B*15:42; [29]): ≥ 5 µM
Kd (HLA-B*83:01; [29]): ≥ 5 µM
Kd (HLA-B*45:06; [29]): ≥ 5 µM

SLGDPLHQA
Kd (HLA-B*15:17): ≥ 20 µM
Kd (HLA-A*26:01; source organism: Homo sapiens): ≥ 20 µM
Kd (HLA-B*15:01 [15]; source organism: Homo sapiens): ≥ 20 µM
Kd (HLA-B*57:01 [17]): ≥ 20 µM
Kd (HLA-B*18:01 [7]; source organism: Homo sapiens): ≥ 20 µM
Kd (HLA-B*46:01 [18]): ≥ 20 µM
Kd (HLA-B*27:03; source organism: Homo sapiens): ≥ 20 µM
Kd (HLA-B*51:01 [19]): ≥ 20 µM
Kd (HLA-B*39:01; source organism: Homo sapiens): ≥ 20 µM
Kd (HLA-A*69:01 [20]): ≥ 20 µM

LPDLPTTTI
Kd (HLA-B*51:01 [14]; source organism: Staphylococcus aureus): 0.922 µM

NAFGWENAY
Kd (HLA-B*51:01 [14]; [30]): ≥ 20 µM
Kd (HLA-B*07:02; [30]): 0.35 µM
Kd (HLA-B*15:01 [15]; source organism: Vibrio vulnificus YJ016): 1.32 µM
